Measurements taken from EP4375293A1 (Max-Planck-Gesellschaft zur Förderung der Wissenschaften …, dated 2024).
Positions count from the first letter of the chain named.

B1: Ma28D01 (VHH)
VHH: QVQLVESGGGLVQPGGSLRLSCVVSELGLDYYQIGWFRQAPGKEREGVSCFRSSDEIRYYADSVKGRFTTFRDNAGTTVYLQMNSLKPEDTGVYYCAVAPQTYYHGTWYGECAAAGMDSWGKGTQVTVSS
notes: Monomeric VHH
B2: Ma28F04 (VHH)
VHH: B1 VHH with E26D, S63P, Q125L
notes: Monomeric VHH
B3: Ma16B06 (VHH)
VHH: QVQLVESGGGLVRTGGSLRLSCAASGSILQIWAMKWYRQAPGLQREWIATIPNSGEPFYASSVEGRFTGSRENEETVYLYLNNLEPEDTAVYYCEVNEGVPVREYWGQGTQVTVSS
notes: Monomeric VHH; also called VHH Ma16B06
B4: Ma28H11 (VHH)
VHH: QVQLVESGGGLVQPGGSLRLSCATSGLTLDHYAIGWFLQAPGKEREGVACVSDDERSLYAPSVMGRFSISRDNAKKTFYLEMNSLKPEDTGVYYCASGPVVPGTLCRIPTVLGYDDWGQGTQVTVSS
notes: Monomeric VHH; also called M28H11
B5: Re6H06 (VHH)
VHH: QVQLVESGGGLVQPGGSLRLSCAASGVTLDYYAIGWFRQAPGKEREGVSCTSSSDGSTYYADSVKGRFTISRDNAKNTVYLQMNSLKPEDTGVYYCAVVPQTYYGGKYYSQCTANGMDYWGKGTLVTVSS
B6: Re5D06 (VHH)
VHH: QVQLVESGGGLVQPGGSLRLSCAASGITLDYYAIGWFRQAPGKEREGVSRIRSSDGSTNYADSVKGRFTMSRDNAKNTVYLQMNSLKPEDTAVYYCAYGPLTKYGSSWYWPYEYDYWGQGTQVTVSS
B7: Re9B09 (VHH)
VHH: QVQLVESGGGLVQPGGSLRLSCAASGFTLDYYAIGWFRQAPGKEREGVSRISSSDGSTDYADSVKGRFTISRDNAKNTVYLQMNSLKPEDTAVYYCATVPGTYYSGNWYYTWHPEAVDYWGKGTQVTVSS
B8: Re32D03 (VHH)
VHH: QVQLVESGGGLVQPGGSLRLSCAISGITLDYYAVGWFLQAPGKEREGISCMRNWDGRTVYAPSVKGRFTISSDNAKKMVYLEMDNLKSEDTGVYYCAAGPLPPGISCRIPTPLGYDDWGQGTQVTVSS

What follows are binders tested against SARS-CoV-2 spike protein of the original Wuhan strain (SARS-CoV-2 (Wuhan/Wildtype strain), UniProt P0DTC2 14-1273) (assay: cell-based or functional assay).
With B1 the “Lowest virus neutralizing concentration (pM; IC99)” value was 500 pM.
In the case of B2, the “Lowest virus neutralizing concentration (pM; IC99)” value is reported as 500 pM.
With B3 the “Lowest virus neutralizing concentration (pM; IC99)” value was 1700 pM.
In the case of B4, the “Lowest virus neutralizing concentration (pM; IC99)” value is reported as 170 pM.

These binders were tested against SARS-CoV-2 wild type RBD (wt_RBD-AviHis) (SARS-CoV-2 (Wuhan/Wildtype strain)) (assay: BLI, biotinylated RBD, mass transport model fit).
B5 was tested, and the Kd was at most 0.01 nM.
For B6, the Kd was at most 0.01 nM.
In the case of B7, the Kd is reported as 0.03 nM.
In the case of B8, the Kd is reported as at most 0.01 nM.

Target: SARS-CoV-2 wild type RBD (wt_RBD-AviHis) (SARS-CoV-2 (Wuhan/Wildtype strain))
Assay: BLI, biotinylated RBD, mass transport model fit
Remark: another data set of the same source
Binder B1 has a Kd of at most 0.01 nM.
Work on B2 yielded a Kd of at most 0.01 nM.
B3 showed a Kd of at most 0.01 nM.
B4 showed a Kd of at most 0.01 nM.
